In paper PMC4847171, “Structural model of FeoB, the iron transporter from Pseudomonas aeruginosa, predicts a cysteine lined, GTP-gated pore” (Bioscience Reports, 2016):
“And” between values parts separate entries of the source, which are not always exact repeats. Equal entries are not always repeated.

Tests used:
[1] = molecular target: FeoB from Pseudomonas aeruginosa, histidine-tagged (Pseudomonas aeruginosa); assay: native gel or EMSA; blue-native PAGE (NativePAGE Novex Bis-Tris 4%-12% gel, Coomassie blue G-250, 140 V for 2 h); purified FeoB solubilised with the polymer NV10
[2] = molecular target: FeoB from Pseudomonas aeruginosa, histidine-tagged (Pseudomonas aeruginosa); assay: AFM; AFM imaging in air of isolated FeoB diluted 10000-20000 times in 10 mM K-HEPES pH 7.0, 200 mM NaCl, 10 mM MgSO4, 0.05% C12E8, adsorbed on mica and dried; oligomeric state from molecular volumes
[3] = molecular target: the molecule itself; assay: native gel or EMSA; blue-native PAGE, same gel as FeoB; comparison proteins MexB and BSA

Molecule	stoichiometry N [1]	stoichiometry N [2]	stoichiometry N [3]
FeoB from Pseudomonas aeruginosa, histidine-tagged (natural protein)	3 and 6	3 and 6	
MexB, drug efflux transporter from Pseudomonas aeruginosa (natural protein) MSKFFIDRPIFAWVIALVIMLAGGLSILSLPVNQYPAIAPPAIAVQVSYPGASAETVQDTVVQVIEQQMNGIDNLRYISSESNSDGSMTITVTFEQGTDPDIAQVQVQNKLQLATPLLPQEVQRQGIRVTKAVKNFLMVVGVVSTDGSMTKEDLSNYIVSNIQDPLSRTKGVGDFQVFGSQYSMRIWLDPAKLNSYQLTPGDVSSAIQAQNVQISSGQLGGLPAVKGQQLNATIIGKTRLQTAEQFENILLKVNPDGSQVRLKDVADVGLGGQDYSINAQFNGSPASGIAIKLATGANALDTAKAIRQTIANLEPFMPQGMKVVYPYDTTPVVSASIHEVVKTLGEAILLVFLVMYLFLQNFRATLIPTIAVPVVLLGTFGVLAAFGFSINTLTMFGMVLAIGLLVDDAIVVVENVERVMAEEGLSPREAARKSMGQIQGALVGIAMVLSAVFLPMAFFGGSTGVIYRQFSITIVSAMALSVIVALILTPALCATMLKPIEKGDHGEHKGGFFGWFNRMFLSTTHGYERGVASILKHRAPYLLIYVVIVAGMIWMFTRIPTAFLPDEDQGVLFAQVQTPPGSSAERTQVVVDSMREYLLEKESSSVSSVFTVTGFNFAGRGQSSGMAFIMLKPWEERPGGENSVFELAKRAQMHFFSFKDAMVFAFAPPSVLELGNATGFDLFLQDQAGVGHEVLLQARNKFLMLAAQNPALQRVRPNGMSDEPQYKLEIDDEKASALGVSLADINSTVSIAWGSSYVNDFIDRGRVKRVYLQGRPDARMNPDDLSKWYVRNDKGEMVPFNAFATGKWEYGSPKLERYNGVPAMEILGEPAPGLSSGDAMAAVEEIVKQLPKGVGYSWTGLSYEERLSGSQAPALYALSLLVVFLCLAALYESWSIPFSVMLVVPLGVIGALLATSMRGLSNDVFFQVGLLTTIGLSAKNAILIVEFAKELHEQGKGIVEAAIEACRMRLRPIVMTSLAFILGVVPLAISTGAGSGSQHAIGTGVIGGMVTATVLAIFWVPLFYVAVSTLFKDEASKQQASVEKGQ			2 and 3
